Experiment: soluble on expression in E. coli; label from the status in PepcDB or PDB records

Sequence	soluble on expression in E. coli
MAHHHHHHAYLPPNMAERLQMSSSSTEPTTTSSMLPAPHSSANMRHIEGLVVVPGVVKVSRSDVASQYTMPHTNNAPLLFSEPEHRAVDNSSGSNDAQLEPKDPHLGLMPHCLSCTLLTSAGAQEPDDVYGRSMPSSSAVGAVTTELECAVVPTLHASFTPGVSTSIMPAPTEAHSACGSRPLQQPRWGGNYDSGSQCVSFRGADRSNNVSGCGLRLVGDDVEWLQGSFEDSASSPREEVQLSWGHLQRQPCAGKSSAARAVPPALHDVREGTGGEKVLAAHHRFERAVQPQTQRQGVFPSADQENCQAAAMLWAAQQMAVFD	soluble
MKPFLSACLIVKNEEEMLGKCLESLRRVIEEIIVVDTGSTDSTKEIARQFTDKVYDFEWMNDFSEARNFAASKANGEWIIAIDADECVDPDNFKEAIKEIKFHQNKFNMYLVEITSFSGALGENTTVNQMPRIYVNDGTICYKRAIHEQLEAVEGGLRVSLSSLKVYHYGYLSNVVVKQDKKS	soluble
MAHHHHHHMAWTCSALSNASMIQNLERAALLSTPAIIASLQRVDRGWFVPDGMRSSAYRDEPLSLGHGATISAPHMHAIMLELLSPFLLSTPGSLPKAVLDIGSGSGYLTAILADICGDGSRVVGVEHVVELQERSLKVVLQHFPSWVNEGRITFINGDGRDISKLFHPHTAMFDVIHVGAAAASVPKDYLEAIKPGGCLVIPVGKENEVQHLHLYTKDEKGTITKKTHGGVSFVPLTSLRHQKNRS	soluble
MSWQNQGMQALIPVINRVQDAFSQLGTSVSFELPQIAVVGGQSAGKSSVLENFVGKDFLPRGSGIVTRRPLILQLIQDRNEYAEFLHKKGHRFVDFDAVRKEIEDETDRVTGQNKGISPHPINLRVFSPNVLNLTLIDLPGLTKVPVGDQPADIEQQIRDMILTFINRETCLILAVTPANSDLATSDALKLAKEVDPQGLRTIGVLTKLDLMDEGTDAREILENKLFTLRRGYVGVVNRGQKDIVGRKDIRAALDAERKFFISHPSYRHMADRLGTSYLQHTLNQQLTNHIRDTLPTLRDSLQKKMFAMEKDVAEYKNYQPNDPGRKTKALLQMVTQFNADIERSIEGSSAKLVSTNELSGGARINRLFHERFPFEIVKMEIDEKEMRKEIQYAIRNIHGIRVGLFTPDMAFEAIAKKQITRLKEPSLKCVDLVVNELANVIRQCADTMARYPRLRDELERIVVSHMREREQIAKQQIGLIVDYELAYMNTNHEDFIGFSNAEAKASQGQSAKKNLGNQVIRKGWLSLSNVSFVRGSKDNWFVLMSDSLSWYKDDEEKEKKYMLPLDGVKLKDIEGGFMSRNHKFALFYPDGKNIYKDYKQLELGCTNLDEIDAWKASFLRAGVYPEKQKAQEDESQQEMEDTSIDPQLERQVETIRNLVDSYMRIITKTIKDLVPKAVMHLIVNQTGEFMKDELLAHLYQCGDTDALMEESQIEAQKREEMLRMYHACKEALRIISEVNMSTLGDQPPPLPMSDYRPHPSGPSPVPRPAPAPPGGRQAPMPPRGGPGAPPPPGMRPPPGAPGGGGGMYPPLIPTRVPTPSNGAPEIPARPQVPKRPF	not soluble
MGSDKIHHHHHHMRAAQYLRMSTEHQTYSIDNQRDAIRDYAEIMGYEIVATYEDAGRSGLNLGGRPGLQRLLADVESGRADFETVVVYDVSRWGRFQNIDESAAYEYRCQMAGVRIEFCAEQFANDGSIESDVLKAIKRSMAAEQSRMLSQKVFIGQARLIRMGFRQGSKVGFGLRRLLVDQHGRPKGILSPSEYKSLQTDRIILVLGPPDEIATVRWIFGHFVKTRKTELEMARLLNKRGVLSDLGRPWTRVSVHSVLTNENYIGNSIWNKHSARLRSHQVRNPPELWVRVENILEPIVDRKLFNRAQIVLKTIYRHLTNDEMLAALKALLARRGALSSFIIDAAPDCPPSTRYMSRFGTIVKAYELIGYEPPKNSRYIFVNRRLETMRLQIIEDLLAAVEKRGGIATHVMETDLLRINQEITVAIATGRCRVSSFGYPRWFAKADREPPPDIFVLIRMNPDDLSIRDYLIAPAHEIAGKSELHAINGARLDTYIFPTLNPLIRLAERASVGSAAWN	not soluble
MERPGSGLAGVVVGCDDGRVEKLGPQAGFTAVACISWDNRLRLPLAGSLGLVRVDGVDATSVLAGLVLRLGAAGRPVLLDSLTIGGFNIVSPPGVERLTGSPVLAVYNYRPSLERLESGLRSSRLPLAGVRARVLSLVEEAAEASTPHGPVYLVAWGLEASEARRLVLETQVYGRKPEPVRIAHYTASEASEALRRV	not soluble
MTQWKNALSEGQLQQALELLIEAIKASPKDASLRSSFIELLCIDGDFERADEQLMQSIKLFPEYLPGASQLRHLVKAAQARKDFAQGAATAKVLGENEELTKSLVSFNLSMVSQDYEQVSELALQIEELRQEKGFLANDTSFSDVRDIDDRLGGYIELFSTAGNYFLVPIASINTLEIKSATSLLESVWRPVEFDIDGLGEGEGHMPMTYVDSESDAQKLGRETDWKQIADKEVYLGLGLKCWLVGEMALPISDLQNLQVIKELALEHHHHHH	soluble
SVQNPVEVSCSLQTQIFVFTPGASSVTIIWWVCFLTSVSMSAQTSPAEKGLNPGLMCQESYACSGTDEAIFECDECCSLQCLRCEEELHRQERLRNHERIRLKPGHVPYCDLCKGLSGHLPGVRQRAIVRCQTCKINLCLECQKRTHSGGNKRRHPVTVYNVSNLQESLEAEEMDEETKRKKMTEKVVSFLLVDENEEIQVTNEEDFIRKLDCKPDQHLKVVSIFGNTGDGKSHTLNHTFFYGREVFKTSPTQESCTVGVWAAYDPVHKVAVIDTEGLLGATVNLSQRTRLLLKVLAISDLVIYRTHADRLHNDLFKFLGDASEAYLKHFTKELKATTARCGLDVPLSTLGPAVIIFHETVHTQLLGSDHPSEVPEKLIQDRFRKLGRFPEAFSSIHYKGTRTYNPPTDFSGLRRALEQLLENNTTRSPRHPGVIFKALKALSDRFSGEIPDDQMAHSSFFPDEYFTCSSLCLSCGVGCKKSMNHGKEGVPHEAKSRCRYSHQYDNRVYTCKACYERGEEVSVVPKTSASTDSPWMGLAKYAWSGYVIECPNCGVVYRSRQYWFGNQDPVDTVVRTEIVHVWPGTDGFLKDNNNAAQRLLDGMNFMAQSVSELSLGPTKAVTSWLTDQIAPAYWRPNSQILSCNKCATSFKDNDTKHHCRACGEGFCDSCSSKTRPVPERGWGPAPVRVCDNCYEARNVQLAVTEAQVDDEGGTLIARKVGEAVQNTLGAVVTAIDIPLGLVKDAARPAYWVPDHEILHCHNCRKEFSIKLSKHHCRACGQGFCDECSHDRRAVPSRGWDHPVRVCFNCNKKPGDL	soluble
MSLIDLYDLRMPQRTGTYVLHEENLAIIETGPSPSVPHLLAGLKALHIDPADIRYIIVTHIHLDHAGGVGVLLEHCPNATVIVHPKGKRHLADPSRLIAGAKAVYGEQFDALFDPIVPVPEERLLVKEDGETLVLSAERTLTFYDTPGHANHHFSIYDSYSGGVFTGDTIGVFYPQLQEAGLAFCLPSTSPNQFNPEAMKQSAERLEKLNPTRIYFGHFGALDQPEEAFRQLRFWLPKFVAAGKEVIARHPEAPAAEQAKAVTKLLHNDITAFLNECSIPASSPVYKVIELDLQVCAMGIIDYWRKQRLEHHHHHH	not soluble
MTTFERIKKLSAKKGITISQLTSELEMGENSIYRWKTQKPALDKLQKVADYFNVSIDYLLGRTDNPQIDSDIPPEATTLAAHIDPAATEEDMKKILEYIDFIQQKYK	not soluble
GMPQTLKPDTPAGTPAAGAVAFRRQVLPQDALLVRRVVESTGFFTPEEADVAQELVDEHLMHGAACGYHFVFATEDDDMAGYACYGPTPATEGTYDLYWIAVAPHRQHSGLGRALLAEVVHDVRLTGGRLLFAETSGIRKYAPTRRFYERAGFSAEAVLKAFYRAGDDKIIYRLEVA	soluble
MENKKSFFHLHLISDSTGETLMSAGRAVSAQFHTSMPVEHVYPMIRNQKQLAQVIDLIDKEPGIVLYTIVDQQLAEFLDLRCHAIGVPCVNVLEPIIGIFQTYLGAPSRRRVGAQHALNADYFARIEALNFAMDHDDGQMPETYDDADVVIIGISRTSKTPTSIYLANRGIKTANIPVVPNVPLPESLYAATRPLIVGLVATSDRISQVRENRDLGTTGGFDGGRYTDRATIMEELKYARALCARNNWPLIDVTRRSIEETAAAILALRPRTRLEHHHHHH	soluble

— the DeepSol protein solubility set
